± gives the uncertainty stated by the source.
B1: Homeobox protein SIX6, residues 134 to 184; numbered along this chain, O95475 (parent)
chain: CFKERTRHLLREWYLQDPYPNPSKKRELAQATGLTPTQVGNWFKNRRQRDR

Variants of: B1
Assay: abundance fitness (aPCA) (normalised: wild type 0, dead -1); higher = more abundant; growth selection in yeast, the domain comes from the species named
Details: Homo sapiens

| Variant | abundance fitness |
| --- | --- |
| CFKERTRHLLREWYLQDPYPNPSKKRELNQATGLTPTQVGNWFKNRRQRDR [A29N] | -1.03 ± 0.29 |
| CFKERTRHLLREWYLQDPYPNPSKKRELEQATGLTPTQVGNWFKNRRQRDR [A29E] | -0.815 ± 0.16 |
| CFKERTRHLLREWYLQDPYPNPSKKRELFQATGLTPTQVGNWFKNRRQRDR [A29F] | -1.07 ± 0.38 |
| CFKERTRHLLREWYLQDPYPNPSKKRELLQATGLTPTQVGNWFKNRRQRDR [A29L] | -0.917 ± 0.068 |
| CFKERTRHLLREWYLQDPYPNPSKKRELPQATGLTPTQVGNWFKNRRQRDR [A29P] | -0.916 ± 0.2 |
| CFKERTRHLLREWYLQDPYPNPSKKRELRQATGLTPTQVGNWFKNRRQRDR [A29R] | -0.982 ± 0.11 |
| CFKERTRHLLREWYLQDPYPNPSKKRELVQATGLTPTQVGNWFKNRRQRDR [A29V] | -0.767 ± 0.063 |
| CFKERTRHLLREWYLQDPYPNPSKKRELDQATGLTPTQVGNWFKNRRQRDR [A29D] | -0.504 ± 0.16 |
| CFKERTRHLLREWYLQDPYPNPSKKRELWQATGLTPTQVGNWFKNRRQRDR [A29W] | -0.923 ± 0.13 |
| CFKERTRHLLREWYLQDPYPNPSKKRELIQATGLTPTQVGNWFKNRRQRDR [A29I] | -0.727 ± 0.28 |
| CFKERTRHLLREWYLQDPYPNPSKKRELGQATGLTPTQVGNWFKNRRQRDR [A29G] | -0.397 ± 0.062 |
| CFKERTRHLLREWYLQDPYPNPSKKRELHQATGLTPTQVGNWFKNRRQRDR [A29H] | -0.944 ± 0.15 |
| CFKERTRHLLREWYLQDPYPNPSKKRELTQATGLTPTQVGNWFKNRRQRDR [A29T] | -1.07 ± 0.23 |
| CFKERTRHLLREWYLQDPYPNPSKKRELQQATGLTPTQVGNWFKNRRQRDR [A29Q] | -0.527 ± 0.095 |
| CFKERTRHLLREWYLQDPYPNPSKKRELSQATGLTPTQVGNWFKNRRQRDR [A29S] | -0.058 ± 0.07 |
| CFKERTRHLLREWYLQDPYPNPSKKRELAQAEGLTPTQVGNWFKNRRQRDR [T32E] | -0.519 ± 0.19 |
| CFKERTRHLLREWYLQDPYPNPSKKRELAQACGLTPTQVGNWFKNRRQRDR [T32C] | -0.174 ± 0.11 |
| CFKERTRHLLREWYLQDPYPNPSKKRELAQAGGLTPTQVGNWFKNRRQRDR [T32G] | -0.863 ± 0.069 |
| CFKERTRHLLREWYLQDPYPNPSKKRELAQAVGLTPTQVGNWFKNRRQRDR [T32V] | -0.294 ± 0.076 |
| CFKERTRHLLREWYLQDPYPNPSKKRELAQADGLTPTQVGNWFKNRRQRDR [T32D] | -0.719 ± 0.18 |
| CFKERTRHLLREWYLQDPYPNPSKKRELAQAWGLTPTQVGNWFKNRRQRDR [T32W] | -0.873 ± 0.13 |
| CFKERTRHLLREWYLQDPYPNPSKKRELAQASGLTPTQVGNWFKNRRQRDR [T32S] | -0.312 ± 0.053 |
| CFKERTRHLLREWYLQDPYPNPSKKRELAQAIGLTPTQVGNWFKNRRQRDR [T32I] | -0.606 ± 0.066 |
| CFKERTRHLLREWYLQDPYPNPSKKRELAQAQGLTPTQVGNWFKNRRQRDR [T32Q] | -1.01 ± 0.26 |
| CFKERTRHLLREWYLQDPYPNPSKKRELAQAAGLTPTQVGNWFKNRRQRDR [T32A] | -0.572 ± 0.089 |
| CFKERTRHLLREWYLQDPYPNPSKKRELAQAKGLTPTQVGNWFKNRRQRDR [T32K] | -0.932 ± 0.1 |

| Variant | abundance fitness |
| --- | --- |
| CFKERTRHLLREWYLQDPYPNPSKKRELAQARGLTPTQVGNWFKNRRQRDR [T32R] | -0.799 ± 0.085 |
| CFKERTRHLLREWYLQDPYPNPSKKRELAQANGLTPTQVGNWFKNRRQRDR [T32N] | -0.84 ± 0.12 |
| CFKERTRHLLREWYLQDPYPNPSKKRELAQAPGLTPTQVGNWFKNRRQRDR [T32P] | -0.783 ± 0.17 |
| CFKERTRHLLREWYLQDPYPNPSKKRELAQAFGLTPTQVGNWFKNRRQRDR [T32F] | -0.947 ± 0.15 |
| CFKERTRHLLREWYLQDPYPNPSKKRELAQALGLTPTQVGNWFKNRRQRDR [T32L] | -0.384 ± 0.065 |
| CFKERTRHLLREWYLQDPYPNPSKKRELAQAYGLTPTQVGNWFKNRRQRDR [T32Y] | -0.84 ± 0.26 |
| CFKERTRHLLREWYLQDPYPNPSKKRELAPATGLTPTQVGNWFKNRRQRDR [Q30P] | -0.893 ± 0.19 |
| CFKERTRHLLREWYLQDPYPNPSKKRELARATGLTPTQVGNWFKNRRQRDR [Q30R] | -0.365 ± 0.059 |
| CFKERTRHLLREWYLQDPYPNPSKKRELANATGLTPTQVGNWFKNRRQRDR [Q30N] | -0.374 ± 0.17 |
| CFKERTRHLLREWYLQDPYPNPSKKRELAWATGLTPTQVGNWFKNRRQRDR [Q30W] | 0.057 ± 0.069 |
| CFKERTRHLLREWYLQDPYPNPSKKRELAHATGLTPTQVGNWFKNRRQRDR [Q30H] | -0.205 ± 0.15 |
| CFKERTRHLLREWYLQDPYPNPSKKRELAFATGLTPTQVGNWFKNRRQRDR [Q30F] | -0.239 ± 0.11 |
| CFKERTRHLLREWYLQDPYPNPSKKRELAMATGLTPTQVGNWFKNRRQRDR [Q30M] | -0.006 ± 0.073 |
| CFKERTRHLLREWYLQDPYPNPSKKRELAAATGLTPTQVGNWFKNRRQRDR [Q30A] | -0.219 ± 0.089 |
| CFKERTRHLLREWYLQDPYPNPSKKRELAYATGLTPTQVGNWFKNRRQRDR [Q30Y] | -0.381 ± 0.1 |
| CFKERTRHLLREWYLQDPYPNPSKKRELAVATGLTPTQVGNWFKNRRQRDR [Q30V] | -0.059 ± 0.048 |
| CFKERTRHLLREWYLQDPYPNPSKKRELAEATGLTPTQVGNWFKNRRQRDR [Q30E] | -0.193 ± 0.12 |
| CFKERTRHLLREWYLQDPYPNPSKKRELACATGLTPTQVGNWFKNRRQRDR [Q30C] | -0.301 ± 0.11 |
| CFKERTRHLLREWYLQDPYPNPSKKRELAKATGLTPTQVGNWFKNRRQRDR [Q30K] | -0.03 ± 0.1 |
| CFKERTRHLLREWYLQDPYPNPSKKRELATATGLTPTQVGNWFKNRRQRDR [Q30T] | -0.051 ± 0.084 |
| CFKERTRHLLREWYLQDPYPNPSKKRELADATGLTPTQVGNWFKNRRQRDR [Q30D] | -0.064 ± 0.085 |
| CFKERTRHLLREWYLQDPYPNPSKKRELAIATGLTPTQVGNWFKNRRQRDR [Q30I] | 0.036 ± 0.11 |
| CFKERTRHLLREWYLQDPYPNPSKKRELALATGLTPTQVGNWFKNRRQRDR [Q30L] | -0.25 ± 0.046 |
| CFKERTRHLLREWYLQDPYPNPSKKRELAGATGLTPTQVGNWFKNRRQRDR [Q30G] | -0.276 ± 0.065 |
| CFKERTRHLLREWYLQDPYPNPSKKREPAQATGLTPTQVGNWFKNRRQRDR [L28P] | -0.958 ± 0.26 |

— the Human Domainome abundance scans (Beltran et al. 2025)
